Test results reported in paper PMC12494293, “Hexokinase 2 is an RNA-binding protein that regulates mRNA translation independently of glycolysis and induces melanoma cell proliferation”.

Target: T1, HK2 Δ16 (UniProt P52789 17-917, del1-16)
T1 sequence: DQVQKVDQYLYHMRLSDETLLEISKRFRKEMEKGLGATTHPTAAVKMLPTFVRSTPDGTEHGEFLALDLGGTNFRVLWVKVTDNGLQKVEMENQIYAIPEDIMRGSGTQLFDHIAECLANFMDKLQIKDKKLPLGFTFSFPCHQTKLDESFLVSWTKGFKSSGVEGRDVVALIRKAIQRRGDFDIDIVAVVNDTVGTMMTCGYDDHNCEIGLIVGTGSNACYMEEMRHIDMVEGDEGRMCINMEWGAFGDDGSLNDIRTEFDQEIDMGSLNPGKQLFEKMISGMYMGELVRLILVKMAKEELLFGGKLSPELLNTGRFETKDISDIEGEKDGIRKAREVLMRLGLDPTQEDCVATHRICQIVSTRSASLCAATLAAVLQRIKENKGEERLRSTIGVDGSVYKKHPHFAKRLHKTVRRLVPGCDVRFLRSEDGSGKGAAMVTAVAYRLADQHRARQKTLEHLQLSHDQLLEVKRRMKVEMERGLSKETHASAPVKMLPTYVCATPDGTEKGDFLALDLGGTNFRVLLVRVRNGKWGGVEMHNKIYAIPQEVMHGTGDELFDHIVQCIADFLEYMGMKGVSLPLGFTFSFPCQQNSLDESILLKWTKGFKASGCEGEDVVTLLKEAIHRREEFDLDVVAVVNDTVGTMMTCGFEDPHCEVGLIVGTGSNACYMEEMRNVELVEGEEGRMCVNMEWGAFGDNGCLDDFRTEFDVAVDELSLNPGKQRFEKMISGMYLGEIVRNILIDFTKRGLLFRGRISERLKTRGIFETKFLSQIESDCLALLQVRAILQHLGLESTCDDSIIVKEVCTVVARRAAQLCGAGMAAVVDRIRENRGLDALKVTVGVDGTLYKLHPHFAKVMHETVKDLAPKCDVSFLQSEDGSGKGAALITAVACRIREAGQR
Test: competition; 5 µM HK2 Δ16, 25 nM ATTO700 SOX10 SL; almost complete competition; 10 mM Tris-HCl pH 7.5, 1 mM EDTA, 100 mM KCl, 0.1 mM DTT, 5% glycerol, 0.01 mg/mL BSA, 0.125 mg/mL yeast tRNA, 20°C; gel at 4°C
Conditions: protein: recombinant; (pET28b, Ni-NTA); hairpin

AGGACGAGCCCCAGACUGGAGGAGAGGUCC (structured_RNA) [SOX10 SL (unlabeled)]
binding result: binds
